Assay results taken from PMC3154886 (Molecular Biology of the Cell, 2011).

Biological target: Human EB3 (end-binding protein 3) (human, UniProt Q9UPY8 1-281)
Assay: cross-linking

Chain of Human EB3 (end-binding protein 3) (Q9UPY8 whole entry): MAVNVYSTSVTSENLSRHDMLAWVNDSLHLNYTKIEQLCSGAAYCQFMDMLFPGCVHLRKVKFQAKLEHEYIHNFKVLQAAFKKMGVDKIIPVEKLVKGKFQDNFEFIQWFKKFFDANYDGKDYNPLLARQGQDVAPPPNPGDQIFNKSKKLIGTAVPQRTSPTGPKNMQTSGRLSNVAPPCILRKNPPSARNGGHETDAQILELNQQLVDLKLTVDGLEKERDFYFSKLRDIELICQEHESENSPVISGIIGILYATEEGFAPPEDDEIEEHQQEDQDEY

B1: Human EB1 (end-binding protein 1) (natural protein)
chain: MAVNVYSTSVTSDNLSRHDMLAWINESLQLNLTKIEQLCSGAAYCQFMDMLFPGSIALKKVKFQAKLEHEYIQNFKILQAGFKRMGVDKIIPVDKLVKGKFQDNFEFVQWFKKFFDANYDGKDYDPVAARQGQETAVAPSLVAPALNKPKKPLTSSSAAPQRPISTQRTAAAPKAGPGVVRKNPGVGNGDDEAAELMQQVNVLKLTVEDLEKERDFYFGKLRNIELICQENEGENDPVLQRIVDILYATDEGFVIPDEGGPQEEQEEY
**Q.** Does B1 bind?
**A.** binds
